Laboratory results as given in PMC2115667 (The Journal of Cell Biology, 1988).

Molecular target: the molecule itself
Test: sedimentation velocity centrifugation on glycerol gradients

B1: cytotactin (intact, unreduced hexabrachion) (natural protein)
chain: ETGLNVTLPEDNQPVVFNHVYNIKLPVGSLCSVDLDTASGDADLKAEIEPVKNYEEHTVNEGNQIVFTHRINIPRRACGCAAAPDIKDLLSRLEELEGLVSSLREQCASGAGCCPNSQTAEGRLDTAPYCSGHGNYSTEICGCVCEPGWKGPNCSEPACPRNCLNRGLCVRGKCICEEGFTGEDCSQAACPSDCNDQGKCVDGVCVCFEGYTGPDCGEELCPHGCGIHGRCVGGRCVCHEGFTGEDCNEPLCPNNCHNRGRCVDNECVCDEGYTGEDCGELICPNDCFDRGRCINGTCFCEEGYTGEDCGELTCPNNCNGNGRCENGLCVCHEGFVGDDCSQKRCPKDCNNRGHCVDGRCVCHEGYLGEDCGELRCPNDCHNRGRCINGQCVCDEGFIGEDCGELRCPNDCHNRGRCVNGQCECHEGFIGEDCGELRCPNDCNSHGRCVNGQCVCDEGYTGEDCGELRCPNDCHNRGRCVEGRCVCDNGFMGEDCGELSCPNDCHQHGRCVDGRCVCHEGFTGEDCRERSCPNDCNNVGRCVEGRCVCEEGYMGIDCSDVSPPTELTVTNVTDKTVNLEWKHENLVNEYLVTYVPTSSGGLDLQFTVPGNQTSATIHELEPGVEYFIRVFAILKNKKSIPVSARVATYLPAPEGLKFKSVRETSVQVEWDPLSISFDGWELVFRNMQKKDDNGDITSSLKRPETSYMQPGLAPGQQYNVSLHIVKNNTRGPGLSRVITTKLDAPSQIEAKDVTDTTALITWSKPLAEIEGIELTYGPKDVPGDRTTIDLSEDENQYSIGNLRPHTEYEVTLISRRGDMESDPAKEVFVTDLDAPRNLKRVSQTDNSITLEWKNSHANIDNYRIKFAPISGGDHTELTVPKGNQATTRATLTGLRPGTEYGIGVTAVRQDRESAPATINAGTDLDNPKDLEVSDPTETTLSLRWRRPVAKFDRYRLTYVSPSGKKNEMEIPVDSTSFILRGLDAGTEYTISLVAEKGRHKSKPTTIKGSTEEEPELGNLSVSETGWDGFQLTWTAADGAYENFVIQVQQSDNPEETWNITVPGGQHSVNVTGLKANTPYNVTLYGVIRGYRTKPLYVETTTGAHPEVGELTVSDITPESFNLSWTTTNGDFDAFTIEIIDSNRLLEPMEFNISGNSRTAHISGLSPSTDFIVYLYGISHGFRTQAISAAATTEAEPEVDNLLVSDATPDGFRLSWTADDGVFDSFVLKIRDTKRKSDPLELIVPGHERTHDITGLKEGTEYEIELYGVSSGRRSQPINSVATTVVGSPKGISFSDITENSATVSWTPPRSRVDSYRVSYVPITGGTPNVVTVDGSKTRTKLVKLVPGVDYNVNIISVKGFEESEPISGILKTALDSPSGLVVMNITDSEALATWQPAIAAVDNYIVSYSSEDEPEVTQMVSGNTVEYDLNGLRPATEYTLRVHAVKDAQKSETLSTQFTTGLDAPKDLSATEVQSETAVITWRPPRAPVTDYLLTYESIDGRVKEVILDPETTSYTLTELSPSTQYTVKLQALSRSMRSKMIQTVFTTTGLLYPYPKDCSQALLNGEVTSGLYTIYLNGDRTQPLQVFCDMAEDGGGWIVFLRRQNGKEDFYRNWKNYVAGFGDPKDEFWIGLENLHKISSQGQYELRVDLRDRGETAYAVYDKFSVGDAKTRYRLRVDGYSGTAGDSMTYHNGRSFSTFDKDNDSAITNCALSYKGAFWYKNCHRVNLMGRYGDNNHSQGVNWFHWKGHEYSIQFAEMKLRPSSFRNLEGRRKRA
modifications: interchain disulfide bonds; HNK-1 carbohydrate epitope; radioiodinated (chloramine T, 125I) in the ultracentrifugation
In the case of B1, the “stoichiometry N” value is reported as about 6.
